Experimental data as given in publication PMC9371709 (Proceedings of the National Academy of Sciences of the …, 2022).
Values joined by “and” are separate entries in the source; they are usually repeats but may differ in a detail not shown here. Equal entries are not always repeated.

Tests used:
cryo-EM structure = target: the molecule itself; test: cryo-EM structure
SEC-MALS = target: the molecule itself; test: SEC-MALS

B1: human Twinkle helicase W315L (C-terminal his-tag Δ42, FL residues 43–684) (enzyme, UniProt Q96RR1 43-684, looked up)
chain: ETLQALDMPVLPVTATEIRQYLRGHGIPFQDGHSCLRALSPFAESSQLKGQTGVTTSFSLFIDKTTGHFLCMTSLAEGSWEDFQASVEGRGDGAREGFLLSKAPEFEDSEEVRRIWNRAIPLWELPDQEEVQLADTMFGLTKVTDDTLKRFSVRYLRPARSLVFPWFSPGGSGLRGLKLLEAKCQGDGVSYEETTIPRPSAYHNLFGLPLISRRDAEVVLTSRELDSLALNQSTGLPTLTLPRGTTCLPPALLPYLEQFRRIVFWLGDDLRSLEAAKLFARKLNPKRCFLVRPGDQQPRPLEALNGGFNLSRILRTALPAWHKSIVSFRQLREEVLGELSNVEQAAGLRWSRFPDLNRILKGHRKGELTVFTGPTGSGKTTFISEYALDLCSQGVNTLWGSFEISNVRLARVMLTQFAEGRLEDQLDKYDHWADRFEDLPLYFMTFHGQQSIRTVIDTMQHAVYVYDICHVIIDNLQFMMGHEQLSTDRIAAQDYIIGVFRKFATDNNCHVTLVIHPRKEDDDKELQTASIFGSAKASQEADNVLILQDRKLVTGPGKRYLQVSKNRFDGDVGVFPLEFNKNSLTFSIPPKNKARLKKIKDDTGPVAKKPSSGKKGATTQNSEICSGQAPTPDQPDTSKRSK
Which “stoichiometry N” value (cryo-EM structure) does the source give for B1 here?
The value was 7 and 8.

What about the “stoichiometry N” value (SEC-MALS) of the same protein?
Its value is roughly 8.
